Targets include M2Δi3R (human) (UniProt P08172); hβ1AR (human) (UniProt P08588); β2AR365N (human) (UniProt P07550).
What all share (assay): cell-based or functional assay

Sequence of hβ1AR (human) (P08588 other isoform, or with tags, fused parts or gaps): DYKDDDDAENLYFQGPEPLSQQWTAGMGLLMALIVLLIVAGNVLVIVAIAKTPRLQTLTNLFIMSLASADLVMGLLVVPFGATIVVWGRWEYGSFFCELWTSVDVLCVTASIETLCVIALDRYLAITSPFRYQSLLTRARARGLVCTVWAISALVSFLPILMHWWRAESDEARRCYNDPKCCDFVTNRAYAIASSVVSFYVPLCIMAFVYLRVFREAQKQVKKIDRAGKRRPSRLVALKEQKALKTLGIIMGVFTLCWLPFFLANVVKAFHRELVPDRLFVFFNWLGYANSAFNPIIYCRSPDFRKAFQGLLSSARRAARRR
Sequence of M2Δi3R (human) (P08172 other isoform, or with tags, fused parts or gaps mutant limits assumed): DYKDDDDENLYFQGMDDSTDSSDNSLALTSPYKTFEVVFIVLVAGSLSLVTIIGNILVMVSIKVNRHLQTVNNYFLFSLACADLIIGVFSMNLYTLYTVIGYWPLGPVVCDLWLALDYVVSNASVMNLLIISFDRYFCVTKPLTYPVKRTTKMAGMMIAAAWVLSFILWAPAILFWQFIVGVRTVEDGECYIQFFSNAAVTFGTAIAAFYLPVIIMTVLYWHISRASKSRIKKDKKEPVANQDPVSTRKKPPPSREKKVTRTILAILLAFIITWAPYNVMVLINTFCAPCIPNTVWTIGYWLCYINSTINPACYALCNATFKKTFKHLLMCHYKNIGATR

B1: Nb9-1 (VHH)
VHH: QVQLQESGGGLVQAGGSLRLSCAASGHTFSSARMYWVRQAPGKEREFVAAISRSGFTYSADSVKGRFTISRDIANNTVYLQMNSLQPEDTAIYTCYAAYLDEFYNDYTHYWGLGTQVTVSS
For the molecule B1, in the assay with M2Δi3R (human), the IC50 ratio, carbachol: IC50 M2Δi3R / IC50high M2Δi3R-Nb9-1 fusion ([3H]-NMS competition, Sf9 membranes) was found to be 67.2 and the IC50 ratio, oxotremorine M: IC50 M2Δi3R / IC50high M2Δi3R-Nb9-1 fusion was 316.

B2: Nb80 (VHH)
VHH: QVQLQESGGGLVQAGGSLRLSCAASGSIFSINTMGWYRQAPGKQRELVAAIHSGGSTNYANSVKGRFTISRDNAANTVYLQMNSLKPEDTAVYYCNVKDYGAVLYEYDYWGQGTQVTVSS
As to B2, in the assay with hβ1AR (human), the IC50 ratio, ICI-118,551: IC50 hβ1AR-Nb69 / IC50high hβ1AR-Nb80 fusion turned out to be 0.077; the IC50 ratio, alprenolol: IC50 hβ1AR-Nb69 / IC50high hβ1AR-Nb80 fusion came to 0.988; the IC50 ratio, epinephrine: IC50 hβ1AR-Nb69 / IC50high hβ1AR-Nb80 fusion ([3H]-DHA competition, Sf9 membranes) stood at 68.7. In addition, in the assay with β2AR365N (human), the IC50 ratio, ICI-118,551: β2AR365N-Nb69 mock fusion / β2AR365N-Nb80 fusion is 0.023; the IC50 ratio, alprenolol: β2AR365N-Nb69 mock fusion / β2AR365N-Nb80 fusion stood at 4; the IC50 ratio, carvedilol: non-fused β2AR365N / β2AR365N-Nb80 fusion amounted to 0.22; the IC50 ratio, carvedilol: β2AR365N-Nb69 mock fusion / β2AR365N-Nb80 fusion was 0.4. For the same molecule, in the assay with β2AR365N (human), the IC50 ratio, epinephrine: non-fused β2AR365N / β2AR365N-Nb80 fusion was 1380; the IC50 ratio, epinephrine: β2AR365N-Nb69 mock fusion / β2AR365N-Nb80 fusion ([3H]-DHA competition; Nb fused to the receptor) came out at 2070; the IC50 ratio, isoproterenol: β2AR365N-Nb69 mock fusion / β2AR365N-Nb80 fusion was 670; the IC50 ratio, salbutamol: β2AR365N-Nb69 mock fusion / β2AR365N-Nb80 fusion was 373. In addition, in the assay with β2AR365N (human), the apparent potency shift, compound 9: IC50 β2AR365N-Nb69 / IC50 β2AR365N-Nb80 fusion turned out to be 71; the apparent potency shift, compound 10: IC50 β2AR365N-Nb69 / IC50 β2AR365N-Nb80 fusion was found to be 94; the apparent potency shift, epinephrine: Nb80 fusion compared to Nb69 fusion (Example 19 experiment) was 855; the apparent potency shift, fragment CC56213: IC50 β2AR365N-Nb69 / IC50 β2AR365N-Nb80 fusion was 22. In the assay with β2AR365N (human), the apparent potency shift, isoprotenerol: Nb80 fusion compared to Nb69 fusion (Example 19 experiment) worked out at 155; the concentration of exogenous Nb80 at which the epinephrine IC50 of non-fused β2AR365N equals that of the fusion came to 5 µM; the effective intramolecular concentration of Nb80 in the β2AR365N-Nb80 fusion was more than 500 nM; the epinephrine potency shift: IC50 of the mock fusion / IC50 of non-fused β2AR365N with 500 nM exogenous Nb80 worked out at 87 fold. Further, in the assay with β2AR365N (human), the epinephrine potency shift: IC50 of the mock fusion / IC50 of the β2AR365N-Nb80 fusion (Nb80 fused to the receptor) was 534 fold and the molar excess of exogenous Nb80 over β2AR needed to match the fusion came to 12500 fold.

B3: Nb71 (VHH)
VHH: QVQLQESGGGLVQPGGSLRLSCAASGFAFSSYELRWYRQAPGKQHELVAGITTGGNTYYADSVKGRFTISRDNAKNTVYLQMSNLRPEDTAVYACNANWDLLSDYWGQGTQVTVSS
Consider B3, for which, in the assay with β2AR365N (human), the IC50 ratio, ICI-118,551: β2AR365N-Nb69 mock fusion / β2AR365N-Nb71 fusion is 0.01; the IC50 ratio, alprenolol: β2AR365N-Nb69 mock fusion / β2AR365N-Nb71 fusion worked out at 1.5; the IC50 ratio, carvedilol: β2AR365N-Nb69 mock fusion / β2AR365N-Nb71 fusion was 0.6; the IC50 ratio, epinephrine: β2AR365N-Nb69 mock fusion / β2AR365N-Nb71 fusion was 2030. For the same molecule, in the assay with β2AR365N (human), the IC50 ratio, isoproterenol: β2AR365N-Nb69 mock fusion / β2AR365N-Nb71 fusion was determined as 80 and the IC50 ratio, salbutamol: β2AR365N-Nb69 mock fusion / β2AR365N-Nb71 fusion worked out at 454.

These data come from patent US20150376261A1.
